According to patent US20230250158A1:

Key:
[1] = biological target: SARS-CoV-2 Spike S2-hFc (SARS-CoV-2), P0DTC2; experiment: Octet BLI; Fab as analyte over S2-hFc on AHC sensors; steady-state analysis; conditions: remark: other sources report otherwise
[2] = biological target: SARS-CoV-2 Spike S2-hFc (SARS-CoV-2), P0DTC2; experiment: Octet, Fab as analyte over S2-hFc on AHC sensor; conditions: remark: other sources report otherwise

B1: 2-A6 Fab (Fab, V domains shown)
VH: QVTLRESGPALVKPTQTLTLTCTFSGFSLNTRGMSVSWIRQPPGKALEWLALIDWEDDKFYRTSLMTRLTISKDIFKNQVVLTMTNVDPVDTGTYYCARTYSVGVKYFGMDVWGQGTTVTVSS
VL: SSELTQDPAVSVALGQTVRITCQGDSLRNYYASWYRQEPGQAPILLIYGGNYRPSGIPDRFSGSSSGNTASLTITGAQAEDEADYYCNSRDSSGNHVVFGGGTKLTVL
- Kd [1]: 913 nM
- Kd [2]: 900 nM
